From patent US20190015518A1, “DRUG DELIVERY COMPOSITIONS AND METHODS” (priority 2016, published 2019)

How the values were obtained:
[1] = test system: MDA-1986 (human head and neck squamous cell carcinoma) cells; test: Anti-proliferative activity (Resazurin Blue, 72 hours); assay type: cell-based; conditions: listed as HA-Lys-Pt 75 kDa
Method: MDA-1986 (human head and neck squamous cell carcinoma), 4T1.2-neu (murine breast cancer cells), and A2058 (human melanoma) cells were maintained in Dulbecco's Modified Eagle Medium (DMEM, Corning, Manassas, Va.) with 4.5 g/L glucose, 4.5 g/L L-glutamine, and 10% fetal bovine serum in a humidified incubator at 37° C. and 5% CO2. Cells were seeded into 96-well plates (3,000 cells/well in 90 μL media) and allowed to attach overnight. […] Resazurin Blue (Acros Organics, Geel, Belgium) in PBS was added to each well (5-μM final concentration; 10-μL addition) and incubated at 37° C. for 4 hours. Fluorescence (λex 550 nm, λem 605 nm) was quantified with a SpectraMax Gemini XS plate-reader (Molecular Devices, Sunnyvale, Calif.). The relative growth of cells incubated with each compound concentration was normalized to vehicle-treated controls (100% proliferation). Data from at least three separate experiments performed in duplicate was analyzed using non-linear regression (GraphPad Prism 5.0) to generate IC50 values.

[2] = Pharmacokinetics in a healthy dog, oral sub-mucosa injection (SAAM II model); assay type: in vivo
Method: Pharmacokinetics of HA-Lys-Pt were determined in a healthy dog by Xenometrics LLC (Stillwell, Kans.). […] After each injection, 2-mL serum samples were collected at 0, 0.25, 1, 2, 6, 24, 48, 96, and 168 hours. […] The samples were frozen at −80° C. until ICP-MS analysis. Prior to analysis, serum and urine samples were diluted 250 and 500-fold using 1% HNO3, respectively. The platinum calibration curve contained 4 replicates of 6 concentrations (0, 1, 10, 20, 40, and 50 ppb). The internal standard was bismuth at 50 ppb.
The pharmacokinetics of the HA-Lys-Pt was measured using the serum and urine samples. The data was modeled using SAAM II software with a four compartmental model.
As indicated by the model, q1, q2, q3, and q4 represent the central blood compartment, the body/tissue compartment, the injection site, and the urine compartment, respectively. The syringe represents the dose that was given to the injection site compartment. The two red circles indicate the two sampling sources, the serum from the q1 (s1), and the urine from the q4 (s2). Furthermore, five transfer rate constants and one loss rate constant were applied to the model to link the compartments and their individual differential equations for data analysis and simulation. The assignment of rate constants and pharmacokinetic interpretation has been discussed previously. The calculated PK parameters including AUC, clearance, volume of distribution at steady state (Vss), elimination half-lives (te), and transfer rate constants, are listed in Table 3.

[3] = Rehydration time of lyophilized HA-Lys-Pt; assay type: physicochemical
Method: 33HA-Lys-Pt (MW of HA: 33 kDa) from batch 33_01015 was used to evaluate the impact of trehalose as an excipient and lyoprotectant. […] The solution was freeze-dried using the following program. Samples were frozen in a −80° C. freezer for 4 hours. The vials were transferred to a freeze dryer and kept at −40° C. for 1.5 hours. The condenser point was set at −70° C. The vacuum setpoint was 100 mTorr. The parameters for primary drying were 30 hours at −35° C. and 10 mTorr. The parameters for secondary drying were 5 hours at 2° C. and 10 mTorr, followed by another 5 hours at 8° C. and 10 mTorr. […] During rehydration, 500-μL of water was added to the vial and the sample was gently shaken. The small molecular weight platinum species such as mono-aquated and di-aquated platinum were separated from the reconstituted 33HA-Lys-Pt using a Centricon centrifugal filter unit (10,000 MWCO, 4000 rpm for 10 min at 4° C.) and analyzed by an HPLC assay. The mobile phase was sodium phosphate solution (10-mM, pH 3.0) at a flow rate of 0.25 mL/min on an Alltech® 250 mm×4.6 mm M/M RP8/cation column thermostated at 25° C.
The solution was freeze-dried using the following program. Samples were frozen in a −80° C. freezer for 4 hours. The vials were transferred to a freeze dryer and kept at −40° C. for 1.5 hours. The condenser point was set at −70° C. The vacuum setpoint was 100 mTorr. The parameters for primary drying were 30 hours at −35° C. and 10 mTorr. The parameters for secondary drying were 5 hours at 2° C. and 10 mTorr, followed by another 5 hours at 8° C. and 10 mTorr. […] During rehydration, 500-μL of water was added to the vial and the sample was gently shaken.
One milliliter of samples were used for all tests. The trehalose percent weights varied from 8-20% wt. The pHs included 4.5, 5, 6, and 7. The solution was freeze-dried using the aforementioned freeze-drying program. […] During rehydration, 1-mL of water was added to the vial and the sample was gently shaken. Diaquated platinum species were separated using the aforementioned Centricon units and analyzed using the aforementioned HPLC method.
Other sample freezing methods were also tested. For examples, samples were gradually frozen in ethanol bath at −80° C. and lyophilized. In addition, samples were flash frozen using liquid nitrogen and lyophilized.
Rehydration using one half of the original sample volume was tested.
Besides trehalose, PEG 200 (2 and 5% wt) was tested as a second excipient to aid the rehydrate process.

In the case of “HA-cis-[Pt(NH3)2(N^α-Acetyl-L-Lysine)] [75HA-Lys-Pt]”, the IC50 ([1]; mean ± S.E.M., cisplatin basis) is reported as 39.8 ± 4.4 µM, the IC50 ([1]; text b180) is reported as roughly 21 µM and the Clearance ([2]; 1st dose […]) is reported as 0.283 mL/min/kg. The Tmax ([2]; 1st dose […]) was 6 h, the Vss ([2]; 1st dose […]) was 7.4 L/kg and the AUC ([2]; 2nd dose 2.0 mg/kg) was 218 µg·h/mL. For the same substance, the Clearance ([2]; 2nd dose 2.0 mg/kg) was 0.153 mL/min/kg, the Cmax ([2]; 2nd dose 2.0 mg/kg) was 3437 ng/mL and the Tmax ([2]; 2nd dose 2.0 mg/kg) was 14.4 h. For the same substance, the Vss ([2]; 2nd dose 2.0 mg/kg) was 2.5 L/kg, the “Rehydration Time” value ([3]; 1.46 mg/mL, pH 6, trehalose 0% wt) was greater than 48 h and the “Rehydration Time” value ([3]; 1.46 mg/mL, pH 6, trehalose 5% wt) was “Ca. 12 hour”. For the same substance, the “Rehydration Time” value ([3]; 1.46 mg/mL, pH 6, trehalose 10% wt) was 7 h, the “Rehydration Time” value ([3]; 1.46 mg/mL, pH 6, trehalose 15% wt) was 6 h and the “Rehydration Time” value ([3]; 1.46 mg/mL, pH 7, trehalose 5% wt) was “ca. 2.5 hour”. For the same substance, the “Rehydration Time” value ([3]; 1.46 mg/mL, pH 7, trehalose 10% wt) was 1 h, the “Rehydration Time” value ([3]; 1.46 mg/mL, pH 7, trehalose 15% wt) was 1 h and the “Rehydration Time” value ([3]; 1.99 mg/mL, pH 4.5, trehalose 15% wt) was 26 h. The “Rehydration Time” value ([3]; 1.99 mg/mL, pH 4.5, trehalose 20% wt) was 26 h, the “Rehydration Time” value ([3]; 1.99 mg/mL, pH 5, trehalose 15% wt) was 26 h and the “Rehydration Time” value ([3]; 1.99 mg/mL, pH 5, trehalose 20% wt) was 26 h. The “Rehydration Time” value ([3]; 1.99 mg/mL, pH adjusted to 5 at rehydration, trehalose 10% wt) was 6 to 20 h, the “Rehydration Time” value ([3]; 1.99 mg/mL, pH adjusted to 6 at rehydration, trehalose 10% wt) was 6 to 20 h and the “Rehydration Time” value ([3]; 1.99 mg/mL, pH adjusted to 7 at rehydration, trehalose 10% wt) was 6 to 20 h. The “Rehydration Time” value ([3]; 3 mg/mL, pH 5, trehalose 15% wt) was greater than 48 h, the “Rehydration Time” value ([3]; batch 75_0706, 1.06 mg/mL, pH 5, trehalose 7.5% wt, rehydration using half the original volume) was 7 h and the “Rehydration Time” value ([3]; batch 75_0706, 1.06 mg/mL, pH 5, trehalose 10% wt, rehydration using half the original volume) was 7 h. The “Rehydration Time” value ([3]; batch 75_0706, 2.13 mg/mL, pH 5, trehalose 15% wt, Ethanol bath) was greater than 48 h, the “Rehydration Time” value ([3]; batch 75_0706, 2.13 mg/mL, pH 5, trehalose 20% wt, Ethanol bath) was greater than 48 h and the “Rehydration Time” value ([3]; batch 75_0706, 2.13 mg/mL, pH 5, trehalose 20% wt, PEG200 2% wt) was 48 h. The “Rehydration Time” value ([3]; batch 75_0706, 2.13 mg/mL, pH 5, trehalose 20% wt, PEG200 5% wt) was 48 h and the “Rehydration Time” value ([3]; batch 75_0706, 3.00 mg/mL, pH 5, trehalose 15% wt) was greater than 48 h.
